Experimental findings from US20170306038A1, “COMPOSITIONS AND METHODS OF USE FOR AUGMENTED IMMUNE RESPONSE AND CANCER THERAPY” (priority 2014, published 2017) are described below.

In experiment [1] the target is T1, human GITR (Homo sapiens, UniProt Q9Y5U5).
T1 construct: expressed in transfected cells; host or cells: HEK-293 (293) cells
T1 sequence (Q9Y5U5 26-241): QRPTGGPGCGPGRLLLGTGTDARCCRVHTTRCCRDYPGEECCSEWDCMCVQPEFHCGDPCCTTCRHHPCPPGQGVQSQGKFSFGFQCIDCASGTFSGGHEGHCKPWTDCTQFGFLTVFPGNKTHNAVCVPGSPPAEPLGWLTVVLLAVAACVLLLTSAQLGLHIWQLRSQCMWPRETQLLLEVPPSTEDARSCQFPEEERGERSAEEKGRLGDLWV
Description: NFκB-Luciferase reporter gene assay, 293 cells with human GITR. In kind it is cell-based. As to conditions: antibodies crosslinked. The procedure: To generate the 293-hGITR-NFκB reporter gene cells line, 293 cells were stably transfected with an NFκB-Luciferase reporter gene and human GITR (or cyno GITR). Activation of the GITR signaling pathway in these cells was determined by measuring the levels of luciferase induced within the cells after a 24 hour incubation with GITR-L or agonistic antibody. To assess the effects of cross-linking Abs, they were incubated with an excess of a F(ab′)2 goat anti-human Fcγ fragment specific antibody or protein A before using in the reporter gene assay.
Functional activity of MABs were tested in an NFkB reporter gene assay for agonist activity. MAB was diluted to 6 μg/mL in PBS and incubated for 30 minutes at room temperature in the presence/absence of a 3 fold excess of F(ab′)2 fragment goat anti-human Fcγ specific crosslinker. Alternatively, MAB was diluted to 6 μg/mL in PBS and incubated for 30 minutes at room temperature in the presence/absence of a 2 fold excess of Protein A. 10 μL of incubated MAB was then added to a 384 well white clear bottomed assay plate. A HEK-293 cell line stably transfected with hGITR and a NFκB reporter gene was diluted to 5×10^5 cells/mL and 20 μL of the cell suspension was added to each well. […] 30 μL of Cell Bright Glo was added to each well and the plate was read for luminescence on the Acquest.

The subject of the next experiment is rodent GITR. Nature of the experiment: ELISA binding to GITR extracellular domain, rodent. Details: species or system rat, mouse. The protocol: (§1) Binding of the MABs to GITR from various species, various alanine mutant constructs or GITR extracellular domain—was assessed using a 384-well plate was coated with rat, mouse, human or cyno GITR extracellular domain (ECD) at 50 ng per well and incubated overnight at 4° C. The plate was blocked with a solution of 1% BSA in PBS for one hour at room temperature and then rinsed three times with PBST. The MAB was then diluted to 0.5 μg/mL or 1 μg/mL in PBS and 20 μL was added to each well. The plate was incubated for 1 hour at room temperature and then washed three times with PBST. Anti-human kappa antibody (Sigma #A7164), anti-human gamma antibody (Jackson Immunoresearch 109-036-098), goat anti-mouse antibody (Jackson ImmunoResearch 115-035-071) conjugated to HRP was diluted 1:5000 in Blocking Buffer (25 μL) and added to each well, or a hrp conjugated HIS antibody (QIAGEN 1014992) diluted 1:1000 in Blocking Buffer was added. The plate was incubated for 1 hour at room temperature, and then washed six times with PBST. 25 μL of SureBlue TMB (KPL 52-00-02) substrate was added to each well and the plate was incubated for about 10 min at room temperature. Plates were read at 650 nm in a spectrophotometer.

For a further experiment, the system named is cynomolgus GITR. Description: ELISA binding to GITR extracellular domain, cyno. The protocol:
as §1

The target of experiment [2] is T2, human GITR (Homo sapiens, UniProt Q9Y5U5).
T2 construct: coated with rat, mouse, human or cyno GITR extracellular domain (ECD) at 50 ng per well
T2 sequence (Q9Y5U5 26-162 limits assumed): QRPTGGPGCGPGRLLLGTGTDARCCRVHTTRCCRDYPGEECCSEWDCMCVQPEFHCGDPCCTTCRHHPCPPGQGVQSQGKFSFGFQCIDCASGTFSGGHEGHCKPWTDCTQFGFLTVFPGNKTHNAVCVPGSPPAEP
Nature of the experiment: ELISA binding to GITR extracellular domain, human. The protocol:
as §1

B1: GITRL: recombinant human GITR ligand (GITR-L) (protein)
chain: ETAKEPCMAKFGPLPSKWQMASSEPPCVNKVSDWKLEILQNGLYLIYGQVAPNANYNDVAPFEVRLYKNKDMIQTLTNKSKIQNVGGTYELHVGDTIDLIFNSEHQVLKNNTYWGIILLANPQFIS
As to B1, the “NFκB activity / intracellular signaling” value with human GITR [1] is listed as “activates intracellular signaling”.

B2: MAB1: murine monoclonal GITR agonist antibody (parental); VH SEQ ID NO:61, VL SEQ ID NO:59 (antibody, V domains shown)
VH: QVQLKESGPGLVAPSQSLSITCTVSGFSLRSYGVDWVRQPPGKGLEWLGVIWGGGGTNYNSALMAKLSISKDKSKSQVFLKMNSLQTDDTAMYYCAKHAYGHDGGFAMDYWGQGTSVTVSS
VL: NIVMTQSPKSMSMSVGERVTLSCKASENVDTFVSWYQQKPDHSPKLLIYGASNRYTGVPDRFTGSGSATDFTLTISSVQAEDLADYHCGQSYSYPFTFGSGTKLEIK
As to B2, in the experiment on rodent GITR, the “binding to rodent GITR in ELISA” value is given as “not rodent GITR”. In the experiment with cynomolgus GITR, the “binding to cynomolgus GITR in ELISA” value is given as “binds”. The “binding to human GITR in ELISA” value with human GITR [2] is “binds”.
